Assay results reported in PMC2959089, “The intriguing Cyclophilin A-HIV-1 Vpr interaction: prolyl cis/trans isomerisation catalysis and specific binding” (BMC Structural Biology, 2010).

B1: synthetic HIV-1 Vpr peptide sVpr^32-38 (peptide)
peptide: RHFPRIW
notes: source: synthetic peptide
B2: synthetic HIV-1 Vpr peptide sVpr^25-40 (peptide)
peptide: ELKSEAVRHFPRIWLH
notes: source: synthetic peptide
B3: synthetic HIV-1 Vpr peptide sVpr^21-40 (peptide)
peptide: ELLEELKSEAVRHFPRIWLH
notes: source: synthetic peptide
B4: synthetic HIV-1 Vpr peptide sVpr^30-40 (peptide)
peptide: AVRHFPRIWLH
notes: source: synthetic peptide
B5: synthetic HIV-1 Vpr peptide sVpr^33-37 (peptide)
peptide: HFPRI
notes: source: synthetic peptide

The binders below were run against T1, recombinant human Cyclophilin A (CypA) (human, UniProt P62937 1-165) (assay: SPR). Conditions: both partners purified.
T1 construct: also called human peptidyl prolyl isomerase CypA; source: E. coli BL21(DE3), pET11c, purified (DEAE-Sepharose flow-through, MonoS cation exchange)
T1 sequence (P62937 whole entry): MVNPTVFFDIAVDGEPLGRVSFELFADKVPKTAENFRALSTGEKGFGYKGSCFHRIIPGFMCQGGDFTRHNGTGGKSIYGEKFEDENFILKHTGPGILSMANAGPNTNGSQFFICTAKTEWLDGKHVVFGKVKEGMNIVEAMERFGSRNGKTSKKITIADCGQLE

Binder | Kd | ka1 (two-state model, association) | ka2 (two-state model, forward rate) | kd1 (two-state model, dissociation) | kd2 (two-state model, backward rate)
B1 | 487 µM | 924 M⁻¹ s⁻¹ | 0.0011 s⁻¹ | 0.67 s⁻¹ | 0.0023 s⁻¹
B2 | 404 µM | 2000 M⁻¹ s⁻¹ | 0.0028 s⁻¹ | 0.942 s⁻¹ | 0.0173 s⁻¹
B3 | 201 µM | 466 M⁻¹ s⁻¹ | 0.0084 s⁻¹ | 0.164 s⁻¹ | 0.011 s⁻¹
B4 | 167 µM | 2470 M⁻¹ s⁻¹ | 0.00145 s⁻¹ | 0.527 s⁻¹ | 0.0053 s⁻¹
B5 | 3570 µM | 120 M⁻¹ s⁻¹ | 0.00138 s⁻¹ | 0.66 s⁻¹ | 0.0025 s⁻¹
